In the nanobody polyreactivity screen of Harvey et al. (2022):

Test: yeast display, Sf9 membrane polyspecificity reagent, FACS + sequencing; frameworks hold sequencing errors
Method in brief: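 A synthetic nanobody library was expressed on Saccharomyces cerevisiae BJ5465 by galactose induction for 36–48 hours. The library was stained for 1 hour at 4 °C with 10% biotinylated, detergent-solubilized Sf9 membrane reagent and enriched with streptavidin microbeads before FACS. Low and high (top ~1%) gates were set on anti-HA fluorescence for expression and streptavidin fluorescence for reagent binding, and each polyreactivity label reflects the gate of origin.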

Row | Sequence | polyreactivity (PSR sort gate)
1 | QVQLVESGGGIVQAGGRLRISCAASGFSFRKYAMGWSRQAPGKEREFVASISSTGARTYYADSVKGRFTISRDNAKNTVYLQMTSLKPEDTAVYYCAAAYGRYYYTYDYWGLGTQVTVSS | high polyreactivity
2 | QVQLVESGGGIVQAGGRLRLRCAASGSNFYYNAMGWYRQAPGKERELVAAITWSGGRTYYADSVKGRFTISRDNAKNTVYLQMNSLKPEDTAVYYCNARYRASRYNYWGQGTQVTVSS | high polyreactivity
3 | QVQLVESGGGIVQAGGRLRLSCAASGSILAGYALGWYRQSPGKERELVAAISESGGNTYYADSVKGRFTISRDNAKNTVYLQMNSLKPEDTAVYYCAADLGYGPLRELEYWGQGTQVTVSS | low polyreactivity
4 | QVQLVESGGGIVQAGGRLRLSCAASGSTFFKYARGWYRQAPGKERELVATMSGTGGRTYYADSVKGRFTISRDNAKNTVYLQMNSLKPEDTAVYYCAAGIYRPFFYTLDYWGQGTQVTVSS | low polyreactivity
5 | QVQLVESGGGIVQAGGSFRLSCAASGSIFVVYAMGWYRQAPGKERELVAAITSGGSTYYADSVKGRFTISRDNAKNTVYLQMNSLKPEDTAVYYCATTYRDGVYELTTFDYWGQGTQVTVSS | low polyreactivity
6 | QVQLVESGGGIVQAGGSHRVICAASGRIFRRYTMGWYRQATGKERDLVATITWDGVSTYYADSVKGRFTISRDNAKKTDYLQMNSLKPEDTAGYYCAARRVYLVGGRYDSWGQGTQVTVSS | high polyreactivity
7 | QVQLVESGGGIVQAGGSLRISCAASRRTYFFNDMGWYRQAPGKERELVAAIGWSTVTTYYADSVKGRFTISRDNAKYTVYFQMISLKPEDTAVYYCAADADGWYSPYDYWGQGSQVTVSS | high polyreactivity
8 | QVQLVESGGGIVQAGGSLRLICAASGFTFGEYAMGRYRQAPGKERELVAAISRGTSTYYADSVKGRFTISRDNAKTTVYLQMNSLKPEDTAVYYCAADWGGLWFWYEYWGQGTQVTVSS | low polyreactivity
9 | QVQLVESGGGIVQAGGSLRLICAASGLIFTLYAMGWSRQAPGKERQLVAVISSAGSTNYADSVKGRFTISRDTAKNTVYLQMNSLKPEETAVYYCNAEPTTPYWDYWAYEDDYWGQGTQVTVSS | low polyreactivity
10 | QVQLVESGGGIVQAGGSLRLICAASGRIFPYNVMGWYRQAPGKERELVAAISSGGTTDYADSVKGRFTISRDNAKNTVYLQMNSLKPEDTAVYYCAATYVYWTWGYDYWGQGTQVTVSS | low polyreactivity
11 | QVQLVESGGGIVQAGGSLRLICAASGSIFSSNAMGWYRQAPGKERELVAAISYSGGGTYYADSVKGRFTISRDNEKNTVYLQMNSLKAEDTAVYYCAVGILFGHYDYLGQGTQVTVSS | high polyreactivity
12 | QVQLVESGGGIVQAGGSLRLRCAASGSTFKVYAIGWYRQATGKERELVAAISRGGRTYYADSVKGRFTISRDNAKNTVYLQMNSLKPEDTAVYYCAAGDQYKTRRNGYGYWGQGTQVTLSS | high polyreactivity
13 | QVQLVESGGGIVQAGGSLRLSCAAAGFTFWQYAMGWYRQAPGKERELVAAITWDGGSTYYADSVKGRFTISRDYAKNTVYLQMNSLKPEDTAVYYCAKLFGGTYYEYDYWGQGTQVTVSS | low polyreactivity
14 | QVQLVESGGGIVQAGGSLRLSCAASGFIFAGNAMGWSSQAPGKERELVAAITRRGGSTHYADSVKGRFTISRDKAKYTVYLQMNSLKPEDTAVYYCNAAVQPPWSDYWGQGTQVTVSS | low polyreactivity
15 | QVQLVESGGGIVQAGGSLRLSCAASGFIFRYYAMGWYRHAPGKESELVATITRSGGSTYYADSVKGRFTISRDNAKNTVYLQMNSLKPEDTAVYYCAADIYWYRGYGYWGQGTQVTVSS | high polyreactivity
16 | QVQLVESGGGIVQAGGSLRLSCAASGFIFVLYAMGWYRQAPGKERELVASISSTGSTYYADSVKGRFTISRENAKNTVYLQMNSLIPEDTAVYYCNLFVFDPEDFWGEGTQVTVSS | low polyreactivity
17 | QVQLVESGGGIVQAGGSLRLSCAASGFIFWKNAMGWYSQAPGKERELVAAISTRGGSTYYADSVKGRFTISRDNAKNTVYLQMNSLKPEDTAVYYCNKEWYPYKHNYWGQGTQVTVSS | low polyreactivity
18 | QVQLVESGGGIVQAGGSLRLSCAASGFKFKFYVMGWYRQAPGKERELVAAISRNSVSTYYADSVKGRFTISRDNAKNTVYLQMNSLKPEDTAVYYCAAKGPRQYNHWGQGTQVTVSS | high polyreactivity
19 | QVQLVESGGGIVQAGGSLRLSCAASGFLYFFYAMGWYRQAPRKQRELVAANSDGVSTYYADSVKGRFTISRDNAKNTVYLQMNSLKPEDTAVFYCAVSRGDDPEFDYWGQCTQVTVSS | low polyreactivity
20 | QVQLVESGGGIVQAGGSLRLSCAASGFTFIRYAMLWYRQAPGIERELVAAITSSGGSTYSADSVKGRFTISRDNAKNTVYLQKNSLKPEDTAVYYCATVYSGPVRAIGYDYWGQGTQVTVSS | high polyreactivity
21 | QVQLVESGGGIVQAGGSLRLSCAASGFTFKKYAMGWYRQAPGKERELVAAISRSGGRTYYADSVKGRFTISRDNAKNTVFLQMNSLKPEDTAVYYCNADYYSAAYYYWGQGTQVTVSS | high polyreactivity
22 | QVQLVESGGGIVQAGGSLRLSCAASGFTFQFYAMGWYRQAPGKEREFVAAISGSGGSTYYADSVKGRFTISRDNAKNTVYLQMNSLKPEDTAVYYCAAEVPGKPYRRSRYSFRHDYWGQGTQVTVSS | low polyreactivity

Row | Sequence | polyreactivity (PSR sort gate)
23 | QVQLVESGGGIVQAGGSLRLSCAASGFTFYYKAMGWYRQAPGKERELVAAISRGGRTNYADSVKGRFTISRDNAKNTVYLEMNSLTPADTAVYYCAADRYNGVYAVYYYGYDYWGQGTKVTVSS | high polyreactivity
24 | QVQLVESGGGIVQAGGSLRLSCAASGFTYVYYVMGWYRQAPGKDRELVAAINAGGGSTYYADSVKGRFTNSRDIAKNTVYLQMNSLKPEDTADYYCNARVRVRLGRNWSSYYYWGQGTQVTVSS | high polyreactivity
25 | QVQLVESGGGIVQAGGSLRLSCAASGGIFWRYAMGWYRQAPGKERELVAAISSRGGSTYYADSVKGRFTISRDNAKNTVYLQMNSLKPEDTAVYYCAADRRYAESGYYWGHGTQVTVSS | high polyreactivity
26 | QVQLVESGGGIVQAGGSLRLSCAASGGTCWFYDMGWYRQAPGKERELVAAINSDGSTYYADSVKGRFTISRDNAMNTVYLQMNSLQPEDTAVYYCAADISLHWYYYRRYNYWGQGTQGTVSS | low polyreactivity
27 | QVQLVESGGGIVQAGGSLRLSCAASGGTFIRYAMGWYRQAPGKEREFVAAISASGGSTYYADSVKGRFTISRDNAKNTVYLQMNSLKPEDTAVYYCAARRTNLPVKFYYWGQGTQVTVSS | high polyreactivity
28 | QVQLVESGGGIVQAGGSLRLSCAASGGTFTRYAMGWYRQAPGKEREFVAAISGSGGSTYYADSVKGRFTISRDNAKNTVYLQMNSLKPVDTAVYYCNKVPVYPPSYYWGQGTQVTVSS | low polyreactivity
29 | QVQLVESGGGIVQAGGSLRLSCAASGIIIQYYAMGWYRQAPGKERELVAAISWSGGSTYYADSVKGRFTISRDNAKNTVYLQMNSLKPEDTAVYYCAARSRSYWPYEGDYWGQGTQVTVSS | low polyreactivity
30 | QVQLVESGGGIVQAGGSLRLSCAASGISFLRYAMGWYRQAPGKEREFVAAINSIVGRTYYADSVKGRFTISRDNAKNTVYLQMNSLIPDDTAVYYCAADSNVRYGMDYWGQGTQVTVSS | low polyreactivity
31 | QVQLVESGGGIVQAGGSLRLSCAASGITFPLYVMGWYRQAPGKERELVAAISASGGSTYADSVKGRFTISRDNAKNTVYLQMNSLKPEDTAVYYCNADVYVGYDYDYWGQGTQVTVSS | low polyreactivity
32 | QVQLVESGGGIVQAGGSLRLSCAASGITIYKYAMGWYRQAPGKERELLAAITRGGSTYYADSVKGRFTISRDNAKNTVYLQMNSLNPEDTAVYYCNKVYHWQTPGFGYGYWGQGTQVTVSS | high polyreactivity
33 | QVQLVESGGGIVQAGGSLRLSCAASGLTFWPYAMGWYRQARGKERELVAAISYNSGRTYYADSVKGRFTISRDNAKNTVYLQMNSLKPEDTEVYYCAVEWSLSRYYYWGQGTQVTVSS | high polyreactivity
34 | QVQLVESGGGIVQAGGSLRLSCAASGLTFWYYAMGGYRQAPGKVRELVARITRSGVGTYYADSVKGRFTISRDNAKNTVYLQMNSLKPEDTAVYYCAARYWVSGFRAGYYWGQGTQVTVSS | high polyreactivity
35 | QVQLVESGGGIVQAGGSLRLSCAASGLTFYVYAMGWYREAPGKEREFVAAITWSGGSTYYADSVKGRFTISRDNAKNTVYLQMNSLKPEDTAVYYCAAETLWSELYYWGQGTQVTVSS | high polyreactivity
36 | QVQLVESGGGIVQAGGSLRLSCAASGLTYGKYAMGWNRPAPGKERELVAANSRRGGSTYYADSVKGRFTISRDKAKNNDYLQMNRLKPEDSAVYYFNTDTKHTGLDYWGQGTQVSVSS | high polyreactivity
37 | QVQLVESGGGIVQAGGSLRLSCAASGNIFGQYAMGWYRQAPGKERELVAAITTTGSTYYADSVKGRFTISRDNAKNTVYLQMNSLKPEDTAVYYCAAVRYYPISYSEYWQYGYWGQGTQVTVSS | low polyreactivity
38 | QVQLVESGGGIVQAGGSLRLSCAASGNIFHQNAMGWYRQAPGKERELVAAISGSAGSTYYADSVKGRFTISRDNAKNTVYLQMNSLKPEDTAVYYCAADYYWLYNYWGQGTQVTVSS | high polyreactivity
39 | QVQLVESGGGIVQAGGSLRLSCAASGNNFSLNGMGWYRQAPGKEREFLAAITWSVGSTYYAYSVNGRLTISRDNAKNTVYLQMNSLKPEDTAVYDCAATVSDLYKNEYYYWGLGTQVTVSS | low polyreactivity
40 | QVQLVESGGGIVQAGGSLRLSCAASGPIFGSYALRWARQAPGKERELVAAITRSGGSTYYADSVKGRFTISRDNAKNTVYLQMNILKPEDTAVYYCAAYFSFSGSAKFGYWGQGTQVTVSS | high polyreactivity
41 | QVQLVESGGGIVQAGGSLRLSCAASGPTFYLYDTMGWYRQAPGKERELVAAISWDDGDTYYADSVKGRFTISRDNAKNTVYLQMNSLKPEDTAVYYCAAESLSGAHGYWGQGTQVTVSS | low polyreactivity
42 | QVQLVESGGGIVQAGGSLRLSCAASGRIFGFYAMVWYRQAPGNERELVAAITINTGSTSYADSVKGRFTSSRDNAKNTDSLPMNSLKPEDTAVYYCATDAAAPKYDYWGQGPQVTVSS | low polyreactivity
43 | QVQLVESGGGIVQAGGSLRLSCAASGRIFGGNAMGWYRQAPGKERELVADISYGGGSTNYADSVKGRFTISRDNAKNTVYLQMNSLKPVDTAVYYCARDAWNTDGAYIGGDYDYWGQGTQVNVSS | low polyreactivity
